Holding throughout (details): EMSA: 50 mM Tris-HCl pH 7.5, 100 mM KCl, 10 mM MgCl2, room temperature, SPR: same buffer, 25 C, Tb footprinting: 50 mM Tris-HCl pH 8.0, 100 mM NaCl
The target in data set [1] is T1, Hfq wild type (Escherichia coli?) (UniProt P0A6X3). Kind of data set: EMSA.
The target of data set [2] is T1, Hfq wild type. Put plainly: SPR. For orientation: In SPR one partner is held on a chip, and binding of the other changes the refractive index at the surface.
In data set [3] the target is T1, Hfq wild type. Put plainly: Tb(III) footprinting.

“And” between values parts separate entries of the source, which are not always exact repeats. Identical values can stand only once.

T1 sequence (P0A6X3 whole entry): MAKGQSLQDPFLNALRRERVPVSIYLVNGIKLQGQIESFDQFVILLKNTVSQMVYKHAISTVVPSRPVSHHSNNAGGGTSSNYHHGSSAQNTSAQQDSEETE

In the case of “GCAGCGUUACAUUCCCAUCCACUGGGGAAAGACGCGGCGCUGAUUGGUGAAGUGGUGGAACGUAAAGGUGUUCGUCUUGCCGGUCUGUAUGGCGUGAAACGAACCCUCGAUUUACCACACGCCGAACCGCUUCCGCGUAUAUGCUAAUAAAAUUCUAAAUCUCCUAUAGUUAGUCAAUGACCUUUUGCACCGCUUUGCGGUGCUUUCCUGGAAGAACAAAAUGUCAUAUACACCGAUGAGUGAUCUCGGACAACAAGGGUUGUUCGACAUCACUCGGACAAAUAUUGGAUCCGCUCGG [fhlA220 mRNA]”, the Kd with Hfq wild type [1] amounted to 15 nM. For the substance “GGCAGUUAGUCAAUGACCUUUUGCACCGCUUUGCGGUGCUUUCCUGGAAGAACAAAAUGUCAUAUACACCGAUGAGUGAUCUCGGACAACAAGGGUUGUUCGACAUCACUCGGACAACAAAUAUUGGAUCCAGCUCG [fhlA53 mRNA]”, the Kd in the data set with Hfq wild type [1] was 70 nM; with Hfq wild type [2] it was 43 nM and 50 nM. Moreover, the binding result in the data set with Hfq wild type [3] is “binds”. OxyS sRNA with fhlA220 mRNA displayed a Kd with Hfq wild type [1] of 23 nM. Consider fhlA53 mRNA, for which the Kd is 70 nM with Hfq wild type [1] (10 mM Mg2+); 43 nM and 50 nM and 5 nM with Hfq wild type [2]. For the substance fhlA220 mRNA, the dissociation constant Kd with Hfq wild type [1] (Hfq hexamer, 10 mM Mg2+) worked out at 15 nM.

What is called Kd is the concentration at which binding is half-saturated. Read a low Kd as higher affinity.

The values are drawn from article PMC2946933.
